{"source": "paper PMC10164138", "about": "(Structure (London, England : 1993), 2023)", "proteins": {"B1": {"name": "CfaB, major pilin subunit of CFA/I pili (natural protein, enterotoxigenic Escherichia coli (ETEC), UniProt P0CK93 24-170, looked up)", "chain": "VEKNITVTASVDPAIDLLQADGNALPSAVKLAYSPASKTFESYRVMTQVHTNDATKKVIVKLADTPQLTDVLNSTVQMPISVSWGGQVLSTTAKEFEAAALGYSASGVNGVSSSQELVISAAPKTAGTAPTAGNYSGVVSLVMTLGS"}}, "biological_target": "the molecule itself", "assay": "cryo-EM structure"}
{"protein": "B1", "values": [{"measurement": "binding result", "result": "binds"}]}
